According to US10005838B2, “Milk fat globule epidermal growth factor 8 regulates fatty acid uptake” (REGENTS OF THE UNIVERSITY OF CALIFORNIA, priority 2013, dated 2018):
Entries after “also recorded” stand apart in the source; their conditions may differ.

Columns and labels:
Rictor at threonine 1135 = assay: Western blot, Rictor phosphorylation in 3T3-L1 adipocytes; assay type: cell-based, mouse
Protocol: (§1) Following tissue preparation and SDS-PAGE, membranes were incubated with a polyclonal antibody against Akt (Cell Signaling Technology), or Rictor (Cell Signaling); Anti-PGC1 alpha antibody (abcam); a monoclonal antibody against Phospho-Akt Ser473 (Cell Signaling), Phospho-Rictor Thr1135 (Cell Signaling), GAPDH (Cell Signaling), or Mfge8 (R&D Systems). For evaluation of total AKT and total Rictor, membranes that been blotted for phospho-AKT and phospho-Rictor were stripped and reprobed. Plasma membrane and post-plasma membrane fractions were isolated as previously described (Nishiumi, S. & Ashida, H., Biosci Biotechnol Biochem 71, 2343-2346 (2007)).

HepG2 cells = assay: Fatty acid uptake in HepG2 cells; assay type: cell-based; details: HepG2 human hepatocellular carcinoma cell line
CD36 = assay: Plasma membrane CD36 expression in primary cells; assay type: cell-based, mouse; details: primary Mfge8−/− adipocytes, hepatocytes, and enterocytes; to WT levels
Protocol: as §1

Rictor = assay: Western blot, Rictor phosphorylation in HepG2 cells; assay type: cell-based, human
Protocol: as §1

[1] = Liver and small intestine triglyceride content after olive oil gavage; assay type: in vivo, mouse; details: Mfge8−/− mice; 8 hours after olive oil gavage
Protocol: 6-8 week-old mice were fasted for 4 hours and then gavaged with 15 μL olive oil per gram body weight. Mice had access to water but not food for the remainder of the experiment. In the experiments in FIGS. 3C and 3F, 50 μg/kg body weight of recombinant protein was mixed into olive oil and administered immediately to mice by gavage. In blocking antibody experiments, integrins αv (clone RMV-7) and 05 (clone ALULA) were administered by gavaging mice with 100 μL water containing 0.5 μg antibody per gram body weight 30 minutes before olive oil gavage. Triglyceride content of serum was assayed using a commercially available kit (Sigma-Aldrich) and fatty acid concentrations were quantified by Wako (Rabot, S. et al., FASEB J 24, 4948-4959 (2010)).
After experiments described above, samples from the left lobe of the liver and the proximal small intestine were isolated and rapidly frozen in liquid nitrogen for triglyceride content assays. Control mice were starved for 8 hours before their organs were harvested as above. Triglyceride content of the intestine (Uchida, A. et al., Front Physiol 3, 26) and liver (Kim, K. Y. et al., J Clin Invest 121, 3701-3712 (2011)) and fecal samples Kim, K. Y. et al., J Clin Invest 121, 3701-3712 (2011)) were quantified as described previously.

PTEN = PTEN activity assay (conversion of PIP3 to PIP2) in freshly isolated antrum; assay type: biochemical, mouse; details: 10 μg/ml
Protocol: In FIG. 14A, the antral rings were treated for 15 min with PI3K inhibitor wortmannin (Wort.100 nm) followed by assessment of contractile force in response to MCh. N=3-4. ***P<0.0001. […] Western blot of antral tissue were treated for 30 minutes with or without rMfge8. […] Western blot of antrum were treated for 30 minutes with wortmannin (100 ng/ml) or Mfge8 and then with MCh for 15 minutes prior to quantifying active RhoA using a GST pull-down. […] PTEN activity assay measured the conversion of PIP3 to PIP2 in freshly isolated antrum with and without the rMfge8 or RGE construct (10 μg/ml) n=3-5. *P<0.05, **P<0.01, ***P<0.001.

3T3-L1 adipocytes [2] = assay: Glucose uptake assay (2-NBDG) in 3T3-L1 adipocytes; assay type: cell-based, mouse
Protocol: (§2) Uptake of […] by primary cells and cell lines was assessed using the fluorescent D-glucose analog 2-[N-(7-nitrobenz-2-oxa-1,3-diazol-4-yl)amino]-2-deoxy-D-glucose (2-NBDG) (Invitrogen). 2-NBDG has been successfully used as an alternative to 2-deoxyglucose in the measurement of glucose uptake in multiple cell types. Cells were plated in triplicate in 96-well plates at a concentration of 25,000 cells per well in 100 μl of DMEM/10% FCS. Plates were centrifuged at 1000 rpm for 4 minutes and incubated at 37° C. for 4-5 hours. Cells were then serum deprived for 1 hour before treatment with recombinant proteins for 20 minutes followed by the addition of 2-NBDG (100 μM) for 10 min at 37° C. in a humidified atmosphere of 5% CO2. Reaction was stopped by adding a twofold volume of ice-cold PBS and the wells were washed again with ice-cold PBS three times. The fluorescent signal before (autofluorescence) and after adding 100 μM 2-NBDG was measured using fluorescent plate reader at 37° C. (Molecular Device using the 485 nmex and 520 nmemiss filter set). The net increase in fluorescence was normalized to the lowest signal (0 cells/well). […]

AKT at serine 473 = assay: Western blot, AKT phosphorylation in 3T3-L1 cells; assay type: cell-based, mouse
Protocol: as §1

3T3-L1 adipocytes [3] = assay: Triglyceride content of 3T3-L1 adipocytes; assay type: cell-based, mouse; details: 3T3-L1 cells; 2, 4, 6, and 8 days after treatment; 10 μg/ml
Protocol: 3T3-L1 (Zen-Bio) fibroblasts were differentiated into adipocytes as described previously (Liao, J. et al., J Lipid Res 46, 597-602 (2005)). Briefly, 3T3-L1 fibroblasts were cultured to confluence on 10 cm tissue culture plates or in 6-well tissue culture dishes in DMEM supplemented with 10% FBS and 25 mM HEPES (normal medium). 2 days after reaching confluence, media was change and 3-isobutyl-1methylxanthine (Calbiochem), dexamethasone (Sigma), and insulin (Sigma) were added to the normal medium at concentrations of 0.5 mM, 1 μM, and 5 μg/mL, respectively, to induce adipocyte differentiation. After 2 days (and every 2 days thereafter), media was replaced with normal medium supplemented with 5 μg/mL insulin. Cells were harvested for use 6-10 days after differentiation. The human hepatocellular carcinoma cell line HepG2 was a generous gift of Dr. Ethan Weiss. Cells were propagated in Eagle's MEM supplemented with 10% fetal bovine serum.

primary WT adipocytes = assay: Glucose uptake assay (2-NBDG) in primary WT adipocytes; assay type: cell-based, mouse; details: insulin 1 μM
Protocol: as §2

AKT = assay: Western blot, AKT phosphorylation in HepG2 cells; assay type: cell-based, human
Protocol: as §1

B1: rMfge8: recombinant Milk Fat Globule Epidermal Growth Factor 8, an integrin ligand, expressed in High 5 cells (protein)
chain: ASGDFCDSSLCLNGGTCLTGQDNDIYCLCPEGFTGLVCNETERGPCSPNPCYNDAKCLVTLDTQRGDIFTEYICQCPVGYSGIHCETETNYYNLDGEYMFTTAVPNTAVPTPAPTPDLSNNLASRCSTQLGMEGGAIADSQISASSVYMGFMGLQRWGPELARLYRTGIVNAWTASNYDSKPWIQVNLLRKMRVSGVMTQGASRAGRAEYLKTFKVAYSLDGRKFEFIQDESGGDKEFLGNLDNNSLKVNMFNPTLEAQYIKLYPVSCHRGCTLRFELLGCELHGCSEPLGLKNNTIPDSQMSASSSYKTWNLRAFGWYPHLGRLDNQGKINAWTAQSNSAKEWLQVDLGTQRQVTGIITQGARDFGHIQYVASYKVAHSDDGVQWTVYEEQGSSKVFQGNLDNNSHKKNIFEKPFMARYVRVLPVSWHNRITLRLELLGC
phosphorylation of Rictor at threonine 1135 (Rictor at threonine 1135): phosphorylated | fatty acid uptake in HepG2 cells (HepG2 cells): increased | membrane expression of CD36 (CD36): increased | phosphorylation of Rictor (Rictor): induced | liver triglyceride levels after gavage [1]: increased significantly | PTEN activity (PTEN): modulates | effect of insulin on glucose uptake (3T3-L1 adipocytes [2]; insulin 1 μM): significantly inhibited | baseline glucose uptake (3T3-L1 adipocytes [2]; without insulin): no difference; also recorded: no effect | phosphorylation of AKT at serine 473 (AKT at serine 473): induced | triglyceride content (3T3-L1 adipocytes [3]): significantly greater | effect of insulin on glucose uptake (primary WT adipocytes): significantly inhibited | phosphorylation of AKT (AKT): induced
